Residue numbers refer to the chain shown, from its start. Where two headings read alike, the source gives them in different places. Each block holds one binder with its values, some of them ahead of it.
What was measured:
[1] = target: T1, human TSLP recombinant protein (human, UniProt Q969D9 29-159, biotinylated in the blocking and cell-binding assays (sites not given)); assay: SPR BIAcore T200, antibody captured on Protein A, human TSLP injected
T1 construct: also called biotinylated human TSLP protein

[2] = target: T2, Cynomolgus macaques TSLP recombinant protein (Cynomolgus macaques, UniProt Q969D9 29-159 (human entry), limits assumed, biotinylated in the blocking assays (sites not given)); assay: competition ELISA, biotin-cynomolgus TSLP to coated cynomolgus TSLPR-Fc
T2 construct: also called cyTSLP; biotinylated Cynomolgus macaques TSLP protein
T2 chain: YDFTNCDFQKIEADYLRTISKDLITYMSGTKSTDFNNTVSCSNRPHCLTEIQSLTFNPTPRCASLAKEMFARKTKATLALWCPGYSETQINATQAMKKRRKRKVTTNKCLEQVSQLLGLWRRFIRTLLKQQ

[3] = target: T1, human TSLP recombinant protein; assay: ELISA on coated human TSLP
Description: (§1) The plate was washed three times with PBS and blocked by adding 200 μL/well of PBS containing 2% skim milk for 1 hour. […] After washing with PBST and PBS three times, respectively, 100 μL of TMB substrate was added to each well for color development at 37° C. for 10 minutes, the reaction was terminated with 50 μL of 2M sulfuric acid solution per well, and the absorbance was read at a wavelength of 450 nm.

[4] = target: T1, human TSLP recombinant protein; assay: cell-based or functional assay
[5] = target: T1, human TSLP recombinant protein; assay: cell-based or functional assay; remark: listed apart in the source
[6] = target: T1, human TSLP recombinant protein; assay: competition ELISA, biotin-human TSLP to coated human TSLPR-Fc
Description: (§2) Human TSLPR recombinant protein was coated onto a 96-well microtiter plate at 1 μg/mL in carbonate buffer overnight at 4° C. The plate was washed three times with PBS and blocked by adding 200 μL/well of PBS containing 2% skim milk for 1 hour. […] The 96-well plate was washed three times with PBS, and 100 μL of the incubated mixture was added to each well and incubated for 1 hour at room temperature. After washing with PBST and PBS three times, respectively, 100 μL of SA-HRP was added to each well and incubated at room temperature for 30 minutes in the dark. After washing with PBST and PBS three times, respectively, 100 μL of TMB substrate was added to well for color development at 37° C. for 10 minutes, the reaction was terminated with 50 μL of 2M sulfuric acid solution per well, and the absorbance was read at a wavelength of 450 nm.

[7] = target: T2, Cynomolgus macaques TSLP recombinant …; assay: ELISA on coated cynomolgus TSLP;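 as to result: Read-out was TMB colorimetric signal measured as absorbance at 450 nm after 10 min development at 37 °C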
Description: as §1

[8] = target: T2, Cynomolgus macaques TSLP recombinant …; assay: ELISA on coated cynomolgus TSLP;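 as to result: Read-out was TMB colorimetric signal measured as absorbance at 450 nm after 10 min development at 37 °C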
Description: as §1

[9] = target: T1, human TSLP recombinant protein; assay: ELISA, human TSLP coated at 1 ug/mL, anti-human IgG Fc-HRP, A450
Description: as §1

[10] = target: T1, human TSLP recombinant protein; assay: flow cytometry competition, biotin-human TSLP to Ba/F3-hTSLPR-IL7Rα cells
Description: Ba/F3-hTSLPR-IL7Rα cells were washed three times with PBS, centrifuged at 300 g for 3 minutes, and blocked with 3% BSA/PBS for 30 minutes. The cells were resuspended and added to a 96-well U-plate at 5×10⁴/well.

[11] = target: T1, human TSLP recombinant protein; assay: ELISA on coated human TSLP; remark: listed apart in the source
Description: as §1

[12] = target: T1, human TSLP recombinant protein; assay: cell-based or functional assay; remark: listed apart in the source
[13] = target: T1, human TSLP recombinant protein; assay: competition ELISA, biotin-human TSLP to coated human TSLPR-Fc; remark: listed apart in the source
Description: as §2

[14] = target: T1, human TSLP recombinant protein; assay: SPR BIAcore T200, antibody captured on Protein A, human TSLP injected; remark: listed apart in the source
Description: (§3) After each injection cycle, the Protein A chip surface was regenerated with regeneration buffer 10 mM glycine (pH 2.0) at a flow rate of 30 μL/min. The association rate constant (ka) and dissociation rate constant (kd) and equilibrium dissociation constant KD were analyzed by fitting the resulting data to a Langmuir 1:1 kinetics theoretical model using BIAevaluation software.

[15] = target: T2, Cynomolgus macaques TSLP recombinant …; assay: SPR BIAcore T200, antibody captured on Protein A, cynomolgus TSLP injected
Description: as §3

[16] = target: T2, Cynomolgus macaques TSLP recombinant …; assay: competition ELISA, biotin-cynomolgus TSLP to coated cynomolgus TSLPR-Fc
Description: Cynomolgus macaques TSLPR recombinant protein was coated onto a 96-well microtiter plate at 1 g/mL in carbonate buffer overnight at 4° C. The plate was washed three times with PBS and blocked by adding 200 μL/well of PBS containing 2% skim milk for 1 hour. […] The 96-well plate was washed three times with PBS, and 100 μL of the incubated mixture was added to each well and incubated for 1 hour at room temperature. After washing with PBST and PBS three times, respectively, 100 μL of SA-HRP was added to each well and incubated at room temperature for 30 minutes in the dark. After washing with PBST and PBS three times, respectively, 100 μL of TMB substrate was added to well for color development at 37° C. for 10 minutes, the reaction was terminated with 50 μL of 2M sulfuric acid solution per well, and the absorbance was read at a wavelength of 450 nm.

[17] = target: T1, human TSLP recombinant protein; assay: cell-based or functional assay; remark: listed apart in the source

Kd [1]: 5.96 pM
koff [1]: 2.84e-05 s⁻¹
kon [1]: 4.77e+06 M⁻¹ s⁻¹
IC50 [2]: 630 pM
EC50 [3]: 210 pM
Inhibition IC50 of cell proliferation [4]: 44700 pM
Inhibition IC50 of STAT5 reporter gene [5]: 3840 pM
IC50 [6]: 2440 pM
EC50 [7]: 350 pM
B2: 80D12 chimeric antibody (antibody, V domains shown)
VH: QVQLKQSGPQLVRPGASVKISCKASGYSFTSYWMHWVKQRPGQGLEWIGMIDPSDSETTLNQKFKDKATLTVDKSSTTAYMQLSSPTSEDSAVYYCARSLDGYYDYWGQGTTLTVSS
VL: DVQMIQSPASLSASVGETVTITCRTSENIYSYLAWYQQKQGKSPQLLVYFAKTLTDGVPSRFSGSGSGTQFSLKINSLQPEDFGSYYCQHHYGTPWTFGGGTKLEIK

binding result [8]: binds
binding result [9]: binds
B4: Ab12 (antibody, V domains shown)
VH: QVQLVQSGAEVKKPGSSVKVSCKASGYTFTDYWMHWVRQAPGQGLEWMGTIDNSDSDTSLNQKFQGRVTITADESSSTAYMELSSLRSEDTAVYYCARSLDGYYDYWGQGTLVTVSS
VL: DIQMTQSPSSLSASVGDRVTITCRASENIYSYLAWYQQKPGKAPKLLIYNARTLPEGVPSRFSGSGSGTDFTLTISSLQPEDFATYYCQHHYTTPWTFGQGTKVEIK
notes: Humanized; also called h39G5VHv12/h39G5VKv1

IC50 [10]: 330 pM
EC50 [11]: 240 pM
Inhibition of Cell Proliferation IC50 [12]: 1100 pM
IC50 [13]: 1760 pM
Kd [14]: 0.0812 pM
koff [14]: 1.61e-07 s⁻¹
kon [14]: 1.98e+06 M⁻¹ s⁻¹
Kd [15]: 0.00708 pM
koff [15]: 1.36e-08 s⁻¹
kon [15]: 1.93e+06 M⁻¹ s⁻¹
EC50 [8]: 830 pM
IC50 [16]: 1540 pM
STAT5 signal inhibition IC50 [17]: 170 pM
B7: Ab23 (antibody, V domains shown)
VH: B4 VH with T28S, T30I, D31S, M34I, T50I, N53P, S76T
VL: B4 VL with A25T, N50F, R52K, P55T, E56D, T93G
notes: Humanized; also called h39G5VHv2/h71G4VKv1; h39G5VHv2/h71G4VKv1 hIgG1

Second part, the binder before the results:

B1: 71G4 chimeric antibody (antibody, V domains shown)
VH: QVQLQQSGAELVMPGASVKMSCKASGYTFTDYWMHWVKQRPGQGLEWIGTIDNSDSDTTYNQKFKGKVTLTVDESSSTAYMQLSSLTSEDSAVYYCARSVDGYLDYWGQGTTLTVSS
VL: B2 VL with D1E, V2I, I5T, F62L
Kd [1]: 10 pM
koff [1]: 3.16e-05 s⁻¹
kon [1]: 3.15e+06 M⁻¹ s⁻¹
IC50 [2]: 560 pM
EC50 [3]: 320 pM
Inhibition IC50 of cell proliferation [4]: 12700 pM
Inhibition IC50 of STAT5 reporter gene [5]: 1670 pM
IC50 [6]: 1520 pM
EC50 [7]: 600 pM

B3: 39G5-H8 chimeric antibody (antibody, V domains shown)
VH: B2 VH with K5L, T30I, M34I, M50I, E57D, T59S, M81I
VL: B2 VL with V2I, I5T, T25A, F50N, K52R, T55P, D56E, S85I, G93T
Kd [1]: 9.5 pM
koff [1]: 4.6e-05 s⁻¹
kon [1]: 4.84e+06 M⁻¹ s⁻¹
IC50 [2]: 1740 pM
EC50 [3]: 150 pM
Inhibition IC50 of cell proliferation [4]: 39100 pM
Inhibition IC50 of STAT5 reporter gene [5]: 3330 pM
IC50 [6]: 3420 pM
EC50 [7]: 540 pM

B5: Ab22 (antibody, V domains shown)
VH: B4 VH with T28S, T30I, D31S, M34I, T50I, N53P, I70L, A72V, E74K, S77T
VL: B4 VL with A25T, N50F, R52K, P55T, E56D, T93G
notes: Humanized; also called h39G5VHv1/h71G4VKv1; h39G5VHv1/h7IG4VKv1 hIgG1
IC50 [10]: 390 pM
EC50 [11]: 290 pM
Inhibition of Cell Proliferation IC50 [12]: 2200 pM
IC50 [13]: 1800 pM
Kd [14]: 0.064 pM
koff [14]: 1.07e-07 s⁻¹
kon [14]: 1.68e+06 M⁻¹ s⁻¹
Kd [15]: 0.0421 pM
koff [15]: 6.7e-08 s⁻¹
kon [15]: 1.59e+06 M⁻¹ s⁻¹
EC50 [8]: 770 pM
IC50 [16]: 1000 pM
STAT5 signal inhibition IC50 [17]: 170 pM

B6: Ab14 (antibody, V domains shown)
VH: EVQLVQSGAEVKKPGESLKISCKASGYTFTDYWMHWVRQMPGKGLEWMGTIDNSDSDTSLNQSFQGHVTISADKSISTAYLQWSSLKASDTAMYYCARSLDGYYDYWGQGTLVTVSS
VL: B4 VL
notes: Humanized; also called h39G5VHv14/h39G5VKv1
binding result [8]: no binding
binding result [9]: binds

From patent US20230029835A1 (KEYMED BIOSCIENCES, published 2023)
